Measurements as given in the supplement of paper PMC10567573.

B1: MMP1 (parent)
chain: FHGTRQYKFDPKTKRILTLQKANS
B2: SNX8 (parent)
chain: LHQETQLIHVYLPLTSHILRAFVN

Variants of: B1
Assay: protein stability index of a GFP-peptide fusion (GPS, HEK-293T) (PSI 1-6); higher = more stable
Settings: c terminus: a fixed tail appended
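Note: lentivirally expressed fusions sorted by FACS into six bins by GFP to DsRed ratio, PSI derived from sequencing read proportions per bin multiplied by bin number.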

Protein stability index of substitutions, site by site:
L19: H 1.59 | C 1.63 | T 2.2 | V 2.03 | N 1.94 | P 1.87 | E 1.73 | K 2.05 | I 2.05 | D 2.49 | S 2.03 | R 1.44 | F 1.68 | G 2.94 | Q 1.87 | Y 2.34 | W 2.61 | A 1.54 | M 1.91
K21: P 2.04 | Y 2.43 | L 1.32 | F 2.14 | H 2.33 | R 1.82 | T 1.54 | S 1.81 | A 2.02 | E 2.86 | M 1.54 | D 1.88 | N 2.27 | C 2.53 | G 1.11 | V 1.6 | I 1.78 | Q 1.9
S24: I 2.09 | V 1.79 | C 2.01 | H 2.58 | R 1.3 | D 1.77 | G 2.03 | P 2.08 | M 1.85 | A 1.6 | Q 2.07 | Y 1.67 | K 1.84 | E 1.79 | N 2.16 | L 1.76 | F 1.59 | T 1.65
N23: F 1.25 | W 1.51 | M 1.8 | S 1.93 | G 1.39 | D 2.46 | V 2.08 | H 1.88 | K 3.21 | Q 1.85 | L 2.08 | C 2.32 | R 2.38 | P 1.67 | A 1.37 | T 1.29 | I 2.87 | E 1.91 | Y 2.1
L17: V 1.73 | Q 2.19 | Y 1.95 | S 1.8 | T 2.2 | R 2.56 | P 1.57 | N 1.6 | W 1.88
Q20: S 2.28 | M 1.45 | L 2.12 | D 1.88 | T 1.8 | F 1.91 | I 1.78 | N 1.73 | E 2.03 | A 2.46 | G 2.01 | W 2.77 | H 2.09 | R 2.37 | Y 1.66 | P 2.06 | V 1.75 | C 2.16 | K 1.84
T18: G 1.86 | R 1.68 | D 3.38 | L 1.58 | F 1.67 | N 2.15 | K 1.34 | W 2.4 | V 1.04 | S 1.9 | Q 1.73 | E 2.07 | M 1.74 | C 1.55 | Y 1.51 | I 1.61 | H 1.39 | A 2.05 | P 2.18
A22: T 1.68 | E 2.92 | P 2.19 | S 2.51 | H 2.49 | M 1.83 | L 1.52 | K 1.99 | R 1.65 | Q 2.06 | N 2.09 | F 1.77 | G 1.73 | D 1.48 | C 2.07 | W 1.6 | I 1.38 | Y 2.49 | V 1.45

Variants of: B2
Assay: as above
Settings: c terminus: a fixed tail appended

Protein stability index, by site and new letter:
Q3: D 2.8 | W 2.73 | S 3.32 | G 2.67 | N 2.96 | E 2.55 | P 2.31 | F 3.79 | K 4.06 | M 2.15 | H 2.62 | I 3.42 | L 2.24 | R 2.48 | V 2.47 | A 3.04 | Y 3.12 | C 2.06
H9: A 2.16 | K 1.43 | V 3.08 | M 2.9 | I 2.82 | Y 3.11 | C 3.65 | P 2.22 | N 2.43 | L 3.18 | G 3.08 | E 1.65 | T 2.96 | W 2.31 | S 2.4
I8: V 1.45 | L 1.67 | Y 4.04 | R 1.78 | F 2.5 | Q 1.68 | D 2.22 | S 2.03 | W 2.6 | G 1.42 | C 2.87 | N 2.09 | A 2.03 | E 2.44 | P 1.65 | K 2.3 | M 3.01 | T 2.1
P13: K 1.72 | I 1.9 | D 2.7 | H 1.38 | A 3.59
L12: Q 3.42 | F 2.58 | G 3.44 | V 1.91 | E 1.83 | D 2.19 | N 2.08 | P 2.21 | T 2.49 | W 3.2 | Y 3.18 | R 2.48 | H 3.23 | K 2.29 | C 2.52 | M 2.71 | S 1.7
L1: H 1.85 | N 2.75 | V 2.64 | P 3.01 | Q 2.18 | A 2.75 | I 2.88 | K 3.1 | D 3.07 | R 2.06 | F 3.82 | T 3.62 | E 3.18
L7: E 1.87 | K 2.32 | G 2.15 | C 2.44 | P 3.31 | N 2.1 | A 2.53 | D 2.17 | I 2.73 | Y 1.91 | S 2.37 | T 3.64 | H 1.98 | Q 2.71 | R 4 | M 2.9
E4: Y 2.38 | K 4.66 | V 3.22 | W 1.8 | P 2.18 | A 1.83 | C 1.83 | L 2.8 | I 2.46 | G 2.64 | M 2.04 | T 1.4 | Q 3.2 | N 3.07 | R 2.25 | H 1.82 | F 2.34
V10: N 1.88 | D 1.87 | M 2.22 | Q 1.71 | E 2.87 | Y 2.24 | W 2.2 | H 1.66 | A 1.19 | R 2.21 | K 1.23 | S 2.33 | G 1.51 | T 1.73 | P 1.76
Q6: W 3.31 | C 2.63 | M 2.2 | R 3.29 | E 2.88 | P 2.41 | K 1.7 | F 2.33 | D 2.01 | G 2.55 | N 1.6 | I 2.75 | S 2.04 | L 3.52 | H 2.75 | V 3.73
T5: C 3.39 | V 4.08 | L 3.03 | P 1.66 | I 3.8 | M 2.39 | F 2.83 | R 2.75 | W 2.22 | A 2.03 | Y 1.85 | E 1.98 | H 2.17 | D 1.78 | G 2.26 | N 3.51
Y11: A 2.63 | P 2.78 | D 1.47 | F 2.14 | V 1.99 | T 1.89 | L 2.05 | C 3.22 | K 2.95 | S 1.91 | G 2.29 | R 1.86 | N 2.81 | M 3.64 | Q 3.1
H2: Y 2.96 | W 3.21 | N 2.5 | G 2.72 | F 2.04 | T 1.68 | V 2.6 | D 3.62 | P 2.04 | S 2.03 | Q 2.5 | R 1.82 | L 1.83
